For experiment [1], the target named is human transferrin receptor expressed by nonhematopoietic cancer cells (human) (UniProt P02786). Nature of the experiment: FACS, MDA-MB-453 cells, 1x.
For experiment [2] the target is unchanged. Nature of the experiment: FACS, H727 cells, 1/5X. For orientation: A flow cytometer gives signals particle by particle.
The target is the same in experiment [3]. Kind of experiment: FACS, DU145 cells, 1x.
Experiment [4] has the same target. Nature of the experiment: FACS, SNU-16 cells, 1x.
The target is the same in experiment [5]. Kind of experiment: FACS, SNU-16 cells, 1/5X.
Experiment [6] has the same target. Nature of the experiment: FACS, NCI-N87 cells, 1x.
The target is the same in experiment [7]. Nature of the experiment: FACS, Panc02.03B cells, 1x.
Experiment [8] has the same target. Nature of the experiment: FACS, COLO205 cells, 1x.
For experiment [9] the target is unchanged. Nature of the experiment: FACS, DLD-1 cells, 1x.
Experiment [10] has the same target. Kind of experiment: FACS, H727 cells, 1x.
Experiment [11] shares this target. Kind of experiment: FACS, COLO205 cells, 1/5X.
Experiment [12] shares this target. Kind of experiment: FACS, SK-OV-3 cells, 1x.
The target is the same in experiment [13]. Nature of the experiment: FACS, Kato III cells, 1x.
Experiment [14] has the same target. Kind of experiment: FACS, OMC-3 cells, 1x.
Experiment [15] has the same target. Nature of the experiment: FACS, HEC-1-A cells, 1x.
For experiment [16] the target is unchanged. Kind of experiment: FACS, WiDr cells, 1/5X.
For experiment [17] the target is unchanged. Kind of experiment: FACS, SU.86.86 cells, 1x.
For experiment [18] the target is unchanged. Kind of experiment: FACS, WiDr cells, 1x.
Experiment [19] has the same target. Nature of the experiment: FACS, Panc-1 cells, 1/5X.
Experiment [20] shares this target. Nature of the experiment: FACS, OMC-3 cells, 1X.
For experiment [21] the target is unchanged. Nature of the experiment: FACS, DLD-1 cells, 1X.
Experiment [22] has the same target. Nature of the experiment: FACS, DU145 cells, 1X.
For experiment [23] the target is unchanged. Nature of the experiment: FACS, Panc-1 cells, 1X.
Experiment [24] shares this target. Nature of the experiment: FACS, A549 cells, 1X.
The target is the same in experiment [25]. Nature of the experiment: FACS, A549 cells, 1/5X.
The target is the same in experiment [26]. Nature of the experiment: FACS, KLE cells, 1X.
The target is the same in experiment [27]. Nature of the experiment: FACS, SK-OV-3 cells, 1X.
Experiment [28] has the same target. Kind of experiment: FACS, SNU-16 cells, 1X.
Experiment [29] has the same target. Nature of the experiment: FACS, COLO205 cells, 1X.
The target is the same in experiment [30]. Kind of experiment: FACS, WiDr cells, 1X.
The target is the same in experiment [31]. Kind of experiment: FACS, NCI-N87 cells, 1X.

Chain of human transferrin receptor expressed by nonhematopoietic cancer cells (human) (P02786 whole entry G142S): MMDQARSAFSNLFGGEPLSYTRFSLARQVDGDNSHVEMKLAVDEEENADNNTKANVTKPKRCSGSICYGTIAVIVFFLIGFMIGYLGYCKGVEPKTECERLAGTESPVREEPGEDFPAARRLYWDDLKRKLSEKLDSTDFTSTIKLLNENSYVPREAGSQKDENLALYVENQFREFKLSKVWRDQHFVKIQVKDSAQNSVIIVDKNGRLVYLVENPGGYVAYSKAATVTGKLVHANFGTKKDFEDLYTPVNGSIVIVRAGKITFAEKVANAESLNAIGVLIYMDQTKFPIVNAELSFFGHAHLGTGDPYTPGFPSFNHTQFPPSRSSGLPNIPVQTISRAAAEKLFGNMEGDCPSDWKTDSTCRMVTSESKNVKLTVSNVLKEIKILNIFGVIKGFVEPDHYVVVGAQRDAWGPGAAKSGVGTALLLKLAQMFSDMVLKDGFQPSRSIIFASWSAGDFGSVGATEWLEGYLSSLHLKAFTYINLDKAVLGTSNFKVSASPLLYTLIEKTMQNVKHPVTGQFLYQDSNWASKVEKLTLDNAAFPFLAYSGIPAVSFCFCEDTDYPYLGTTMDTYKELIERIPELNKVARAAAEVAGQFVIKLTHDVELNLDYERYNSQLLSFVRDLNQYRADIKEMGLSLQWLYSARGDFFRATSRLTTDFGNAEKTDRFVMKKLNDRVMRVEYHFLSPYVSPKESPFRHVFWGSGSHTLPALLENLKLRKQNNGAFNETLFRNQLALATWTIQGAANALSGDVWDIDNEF

B1: antibody 122-72 (antibody, V domains shown)
VH: EVQLVESGGGLVQPKGSLKLSCAASGFTFNTYAMNWVRQAPGKGLEWVARIRSKSNNYATYYADSVKDRFTISRDDSQSMLYLQMNNLKTEDTAMYYCVAYGSRNYWGQGTTLTVSS
VL: DIVMTQSPSSLTVTAGEKVTMSCKSSQSLLNSGNQKNYLTWYQQKPGQPPKLLIYWASTRESGVPDRFTGSGSGTDFTLTISSVQAEDLAVYYCQNDYSYPYTFGGGTKLEIKR
notes: Mouse IgM, kappa from a hybridoma; tested as hybridoma culture supernatant; Antibody 60-43 is said to have the same CDRs
Turning to B1, the MFI in experiment [1] amounted to 53 MFI; in experiment [2], 319 MFI; in [3] it was 51 MFI; in experiment [4] it was 4150 MFI; in experiment [5] it was 5100 MFI; in experiment [6] it was 3940 MFI. Further, the MFI is 4690 MFI in [7]; 6660 MFI in experiment [8]; 2500 MFI in experiment [9]; 623 MFI in experiment [10]; 6340 MFI in experiment [11]; 467 MFI in experiment [12]. Moreover, the MFI in [13] was determined as 613 MFI; in [14], 3460 MFI; in [15] it was 72 MFI; in experiment [16] it was 2460 MFI; in experiment [17], 5070 MFI; in experiment [18], 2480 MFI.

B2: antibody 55-31 (antibody, mouse IgM, V domains shown)
VH: QVQLQQPGAELVKPGTSVKLSCKASGYNFTSYWINWVKLRPGQGLEWIGDIYPGSGSTNYNEKFKSKATLTVDTSSSTAYMQLSSLASEDSALYYCARSAYRYDWFAYWGQGTLVTVSA
VL: DIQMTQSPASLSVSVGETVTITCRASENIYSNLAWYQQKQGKSPQLLVYAATNLADGVPSRFSGSGSGTQYSLKINSLQSEDFGSYYCQHFWGTPYTFGGGTKLEIKR
notes: Mouse IgM, kappa from a hybridoma; tested as hybridoma culture supernatant
In the case of B2, the MFI was 503 MFI in [19]; 214 MFI in experiment [20]; 219 MFI in experiment [21]; 2280 MFI in [22]; 773 MFI in [23]; 897 MFI in experiment [24]. Also, the MFI in [25] is 711 MFI; in [26], 136 MFI; in experiment [27], 2370 MFI.

B3: antibody 6-90 (antibody, mouse IgM, V domains shown)
VH: EVELQQFGIEMVKPGASVKISCKASGYIFTDYHMDWVRQSHGKSLEWIGDIDPKYDRVTYNQKFKGKASLTADKSSSTAYMELRSLTSEDTAVYYCAKTGAYGDYLAYWGQGTLVTVSA
VL: DLVMTQTPLSLPVSLGDQASISCRSSQSLVHSDGNTYFYWYLQKPGQSPKLLIYKVSNRFSGVPDRFSAGGSGTYFTLKISRVEAEDLGVYFCSQTTHFPPTFGGGTKLEIKR
notes: as for B2
With B3, the MFI in experiment [20] came to 3140 MFI; in [21] it was 3760 MFI; in experiment [28], 4750 MFI; in experiment [29], 7090 MFI; in experiment [5], 3970 MFI; in [26], 890 MFI. Also, the MFI in experiment [30] was determined as 1420 MFI; in [11] it was 6160 MFI; in experiment [31], 5810 MFI; in experiment [16], 1080 MFI.

(Values after patent US20130177579A1 (BIOALLIANCE C V, published 2013).)
